Test results published in paper PMC5433770, “Effect of N-terminal region of nuclear Drosophila melanogaster small heat shock protein DmHsp27 on function and quaternary structure” (PLoS ONE, 2017).
Residue numbers refer to the chain shown, from its start. In names and notes the source's numbering stands.

Target: the molecule itself
Assay: native gel or EMSA; 4–12% gradient native Tris-Glycine gel; samples kept and gel run at room temperature (20°C), 150 V, Coomassie blue stain

B1: Drosophila melanogaster small heat shock protein DmHsp27, wild type (natural protein, UniProt P02518 1-213, looked up)
chain: MSIIPLLHLARELDHDYRTDWGHLLEDDFGFGVHAHDLFHPRRLLLPNTLGLGRRRYSPYERSHGHHNQMSRRASGGPNALLPAVGKDGFQVCMDVSQFKPNELTVKVVDNTVVVEGKHEEREDGHGMIQRHFVRKYTLPKGFDPNEVVSTVSSDGVLTLKAPPPPSKEQAKSERIVQIQQTGPAHLSVKAPAPEAGDGKAENGSGEKMETSK
notes: DmHsp27 (Hsp27), Drosophila melanogaster, wild-type cDNA; also called DmHsp27WT; Drosophila melanogaster Hsp27; source: E. coli BL21 (DE3) pLysS, purified (Ni-NTA, SEC on Superose 6)
Question: Does B1 bind?
Answer: binds

B2: DmHsp27 F31A (natural protein, Drosophila melanogaster, UniProt P02518 1-213, looked up)
chain: B1 chain with F31A
notes: DmHsp27 (Hsp27), Drosophila melanogaster, with F31A; source: E. coli BL21 (DE3) pLysS, purified (Ni-NTA, SEC on Superose 6)
Question: Does B2 bind?
Answer: binds

B3: DmHsp27 F31Y (natural protein, Drosophila melanogaster, UniProt P02518 1-213, looked up)
chain: B1 chain with F31Y
notes: DmHsp27 (Hsp27), Drosophila melanogaster, with F31Y; source: E. coli BL21 (DE3) pLysS, purified (Ni-NTA, SEC on Superose 6)
Question: Does B3 bind?
Answer: binds

B4: DmHsp27 G30A (natural protein, Drosophila melanogaster, UniProt P02518 1-213, looked up)
chain: B1 chain with G30A
notes: DmHsp27 (Hsp27), Drosophila melanogaster, with G30A; source: E. coli BL21 (DE3) pLysS, purified (Ni-NTA, SEC on Superose 6)
Question: Does B4 bind?
Answer: binds

B5: DmHsp27 G32A (natural protein, Drosophila melanogaster, UniProt P02518 1-213, looked up)
chain: B1 chain with G32A
notes: DmHsp27 (Hsp27), Drosophila melanogaster, with G32A; source: E. coli BL21 (DE3) pLysS, purified (Ni-NTA, SEC on Superose 6)
Question: Does B5 bind?
Answer: binds

B6: DmHsp27 F29A (natural protein, Drosophila melanogaster, UniProt P02518 1-213, looked up)
chain: B1 chain with F29A
notes: DmHsp27 (Hsp27), Drosophila melanogaster, with F29A; source: E. coli BL21 (DE3) pLysS, purified (Ni-NTA, SEC on Superose 6)
Question: Does B6 bind?
Answer: binds

B7: DmHsp27 F29Y (natural protein, Drosophila melanogaster, UniProt P02518 1-213, looked up)
chain: B1 chain with F29Y
notes: DmHsp27 (Hsp27), Drosophila melanogaster, with F29Y; source: E. coli BL21 (DE3) pLysS, purified (Ni-NTA, SEC on Superose 6)
Question: Does B7 bind?
Answer: binds

B8: DmHsp27 G30R (natural protein, Drosophila melanogaster, UniProt P02518 1-213, looked up)
chain: B1 chain with G30R
notes: DmHsp27 (Hsp27), Drosophila melanogaster, with G30R; source: E. coli BL21 (DE3) pLysS, purified (Ni-NTA, SEC on Superose 6)
Question: Does B8 bind?
Answer: binds

B9: DmHsp27 G32R (natural protein, Drosophila melanogaster, UniProt P02518 1-213, looked up)
chain: B1 chain with G32R
notes: DmHsp27 (Hsp27), Drosophila melanogaster, with G32R; source: E. coli BL21 (DE3) pLysS, purified (Ni-NTA, SEC on Superose 6)
Question: Does B9 bind?
Answer: binds

B10: DmHsp27 S58D (natural protein, Drosophila melanogaster, UniProt P02518 1-213, looked up)
chain: B1 chain with S58D
notes: DmHsp27 (Hsp27), Drosophila melanogaster, with S58D; also called phosphomimetic mutant; source: E. coli BL21 (DE3) pLysS, purified (Ni-NTA, SEC on Superose 6)
Question: Does B10 bind?
Answer: binds

B11: DmHsp27 S75D (natural protein, Drosophila melanogaster, UniProt P02518 1-213, looked up)
chain: B1 chain with S75D
notes: DmHsp27 (Hsp27), Drosophila melanogaster, with S75D; also called phosphomimetic mutant; source: E. coli BL21 (DE3) pLysS, purified (Ni-NTA, SEC on Superose 6)
Question: Does B11 bind?
Answer: binds

B12: DmHsp27 S58/75D (natural protein, Drosophila melanogaster, UniProt P02518 1-213, looked up)
chain: B1 chain with S58D, S75D
notes: DmHsp27 (Hsp27), Drosophila melanogaster, with S58D and S75D; also called phosphomimetic mutant; source: E. coli BL21 (DE3) pLysS, purified (Ni-NTA, SEC on Superose 6)
Question: Does B12 bind?
Answer: binds

B13: DmHsp27 S58A (natural protein, Drosophila melanogaster, UniProt P02518 1-213, looked up)
chain: B1 chain with S58A
notes: DmHsp27 (Hsp27), Drosophila melanogaster, with S58A; source: E. coli BL21 (DE3) pLysS, purified (Ni-NTA, SEC on Superose 6)
Question: Does B13 bind?
Answer: binds

B14: DmHsp27 S75A (natural protein, Drosophila melanogaster, UniProt P02518 1-213, looked up)
chain: B1 chain with S75A
notes: DmHsp27 (Hsp27), Drosophila melanogaster, with S75A; source: E. coli BL21 (DE3) pLysS, purified (Ni-NTA, SEC on Superose 6)
Question: Does B14 bind?
Answer: binds

B15: DmHsp27 S58/75A (natural protein, Drosophila melanogaster, UniProt P02518 1-213, looked up)
chain: B1 chain with S58A, S75A
notes: DmHsp27 (Hsp27), Drosophila melanogaster, with S58A and S75A; source: E. coli BL21 (DE3) pLysS, purified (Ni-NTA, SEC on Superose 6)
Question: Does B15 bind?
Answer: binds

B16: DmHsp27 with deletion of the first 86 amino acids of the N-terminal region (Del_Nter) (domain or fragment, Drosophila melanogaster, UniProt P02518 87-213, looked up)
chain: KDGFQVCMDVSQFKPNELTVKVVDNTVVVEGKHEEREDGHGMIQRHFVRKYTLPKGFDPNEVVSTVSSDGVLTLKAPPPPSKEQAKSERIVQIQQTGPAHLSVKAPAPEAGDGKAENGSGEKMETSK
notes: DmHsp27 (Hsp27), Drosophila melanogaster, without the first 86 amino acids (N-terminal region); The Del-NTR forward primer carries an ATG before the codon of residue 87, so an added Met probably precedes residue 87 (surmise); also called DmHsp27Del-NTR; source: E. coli BL21 (DE3) pLysS, purified (Ni-NTA, SEC on Superose 6)
Question: Does B16 bind?
Answer: binds

B17: DmHsp27 with deletion of the FGFG motif (29-32) (del_FGFG) (natural protein, Drosophila melanogaster, UniProt P02518 1-213, looked up)
chain: MSIIPLLHLARELDHDYRTDWGHLLEDDVHAHDLFHPRRLLLPNTLGLGRRRYSPYERSHGHHNQMSRRASGGPNALLPAVGKDGFQVCMDVSQFKPNELTVKVVDNTVVVEGKHEEREDGHGMIQRHFVRKYTLPKGFDPNEVVSTVSSDGVLTLKAPPPPSKEQAKSERIVQIQQTGPAHLSVKAPAPEAGDGKAENGSGEKMETSK
notes: DmHsp27 (Hsp27), Drosophila melanogaster, without the four residues F29 to G32 (FGFG); also called deletion FGFG (29–32); DmHsp27Del29-32; source: E. coli BL21 (DE3) pLysS, purified (Ni-NTA, SEC on Superose 6)
Question: Does B17 bind?
Answer: binds
